The values that follow come from US20250332197A1 (SUNSHINE LAKE PHARMA, published 2025).

Experiment [1] deals with T1, claudin-18.2 antigen (manufacturer: GenScript, batch number: R50092011) (UniProt P56856-2 1-261, limits assumed).
T1 construct: Bought antigen
T1 sequence (looked up): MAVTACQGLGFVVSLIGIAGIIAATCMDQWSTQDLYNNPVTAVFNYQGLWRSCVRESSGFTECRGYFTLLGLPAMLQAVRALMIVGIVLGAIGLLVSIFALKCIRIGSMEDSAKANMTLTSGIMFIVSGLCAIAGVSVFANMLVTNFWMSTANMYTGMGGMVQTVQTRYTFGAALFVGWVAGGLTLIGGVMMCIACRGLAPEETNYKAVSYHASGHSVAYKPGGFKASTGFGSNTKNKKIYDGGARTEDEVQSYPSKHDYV
The experiment is described as follows: Gator label-free kinetics, antibody loaded, antigen 2000-500 nM. As to the method:
The GATOR instrument and associated software were opened and the Kinetics experimental mode was selected. After data collection, Kinetics fitting was performed to calculate the affinity kinetic parameters. The correlation coefficient R² of all antibodies in the Global fitting mode was greater than 0.95, which met the system suitability requirements and the results were reliable.

The target in experiment [2] is T1, claudin-18.2 antigen (manufacturer: …). The experiment is described as follows: ELISA, plate coated with claudin-18.2 antigen. As to the method: The ELISA plates were washed three times with PBST and blocked with 5% PBS-milk for 2 h at room temperature. The ELISA plate was washed three times with PBST, and the diluted antibodies were added to the ELISA plate, 30 μL per well, and incubated at room temperature for 60 min. The plates were washed three times with PBST and incubated with anti-human IgG-Fc-HRP (abcam, ab97225) for 50 min at room temperature. The plate was washed 12 times with PBST, and TMB was added, 30 μL per well. The reaction was terminated with stop solution and OD450 was read. The ELISA affinity EC50 was calculated.
Background: ELISA stands for enzyme-linked immunosorbent assay.

As a reminder, the Kd is the concentration at which binding is half-saturated. A higher Kd goes with lower affinity. In general, koff refers to the first-order rate constant of dissociation. One may read the kon as a measure of how fast the partners come together. A high value points to fast association. As a reminder, the EC50 is the concentration giving half of the maximal effect. Higher therefore signals a need for much substance.

B1: 1E7-huVH3-HC (IgG1) huVL2 (antibody)
heavy: not shown
light: DIQMTQSPSSLSASVGDRVTMTCKSSQSLLNSGNQKNYLTWYQQKPGKAPKLLIYWASTRESGVPSRFSGSGSGTDFTLTISSLQPEDFATYYCQNDYSYPFTFGGGTKLEIKRTVAAPSVFIFPPSDEQLKSGTASVVCLLNNFYPREAKVQWKVDNALQSGNSQESVTEQDSKDSTYSLSSTLTLSKADYEKHKVYACEVTHQGLSSPVTKSFNRGEC
notes: humanized 1E7, human IgG1, kappa
In experiment [1], B1 came in with a Kd of 0.289 nM, a koff of 2.94e-06 s⁻¹ and a kon of 10200 M⁻¹ s⁻¹. The EC50 in experiment [2] came out at 0.0576 mg/L.

B2: 1B6-huVH3huVL2 (antibody, human IgG4 S228P, kappa)
heavy: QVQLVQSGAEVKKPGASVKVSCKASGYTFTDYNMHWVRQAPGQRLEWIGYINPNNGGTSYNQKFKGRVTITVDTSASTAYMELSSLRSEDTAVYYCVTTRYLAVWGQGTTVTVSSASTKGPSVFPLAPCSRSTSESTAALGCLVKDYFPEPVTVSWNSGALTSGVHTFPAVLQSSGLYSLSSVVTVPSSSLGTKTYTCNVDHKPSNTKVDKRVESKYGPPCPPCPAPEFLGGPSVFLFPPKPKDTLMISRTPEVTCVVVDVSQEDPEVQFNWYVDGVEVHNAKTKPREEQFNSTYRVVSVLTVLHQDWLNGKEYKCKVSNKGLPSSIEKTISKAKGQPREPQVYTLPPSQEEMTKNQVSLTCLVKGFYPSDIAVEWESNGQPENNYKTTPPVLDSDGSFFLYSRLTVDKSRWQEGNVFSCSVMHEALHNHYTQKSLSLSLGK
light: DIQMTQSPSSLSASVGDRVTMTCKSSQSLFNSGNQKNYLTWYQQKPGKAPKLLIYWASTRESGVPSRFSGSGSGTDFTLTISSLQPEDFATYYCQNDYSYPLTFGGGTKLEIKRTVAAPSVFIFPPSDEQLKSGTASVVCLLNNFYPREAKVQWKVDNALQSGNSQESVTEQDSKDSTYSLSSTLTLSKADYEKHKVYACEVTHQGLSSPVTKSFNRGEC
notes: humanized 1B6, human IgG4, kappa
In experiment [1], B2 had a Kd of 12.7 nM, a koff of 0.000121 s⁻¹ and a kon of 9480 M⁻¹ s⁻¹. This molecule came in with an EC50 in experiment [2] of 0.245 mg/L.

B3: 1E7-huVH5-HC (IgG1) huVL3 (antibody)
heavy: not shown
light: DIQMTQSPSSLSASVGDRVTITCRSSQSLLNSGNQKNYLTWYQQKPGKAPKLLIYWASTRESGVPSRFSGSGSGTDFTLTISSLQPEDFATYYCQNDYSYPFTFGGGTKLEIKRTVAAPSVFIFPPSDEQLKSGTASVVCLLNNFYPREAKVQWKVDNALQSGNSQESVTEQDSKDSTYSLSSTLTLSKADYEKHKVYACEVTHQGLSSPVTKSFNRGEC
notes: as for B1
As to B3, in experiment [1], the Kd was 0.929 nM, the off-rate (koff) amounted to 9.83e-06 s⁻¹ and the kon turned out to be 10600 M⁻¹ s⁻¹. Besides, the EC50 in experiment [2] turned out to be 0.13 mg/L.

B4: 1E7-huVH2-HC (IgG1) huVL1 (antibody)
heavy: not shown
light: DIVMTQSPSSLSVSVGDRVTMTCKSSQSLLNSGNQKNYLTWYQQKPGQPPKLLIYWASTRESGVPDRFSGSGSGTDFTLTISSVQPEDFATYYCQNDYSYPFTFGGGTKLEIKRTVAAPSVFIFPPSDEQLKSGTASVVCLLNNFYPREAKVQWKVDNALQSGNSQESVTEQDSKDSTYSLSSTLTLSKADYEKHKVYACEVTHQGLSSPVTKSFNRGEC
notes: as for B1
In experiment [1], B4 registered a Kd of 1.82 nM, a koff of 1.97e-05 s⁻¹ and an on-rate (kon) of 10900 M⁻¹ s⁻¹. The molecule also showed an EC50 in experiment [2] of 0.111 mg/L.

B5: 1E7-huVH5-HC (IgG1) huVL2 (antibody)
heavy: not shown
light: DIQMTQSPSSLSASVGDRVTMTCKSSQSLLNSGNQKNYLTWYQQKPGKAPKLLIYWASTRESGVPSRFSGSGSGTDFTLTISSLQPEDFATYYCQNDYSYPFTFGGGTKLEIKRTVAAPSVFIFPPSDEQLKSGTASVVCLLNNFYPREAKVQWKVDNALQSGNSQESVTEQDSKDSTYSLSSTLTLSKADYEKHKVYACEVTHQGLSSPVTKSFNRGEC
notes: as for B1
For B5, in experiment [1], binding was put at a Kd of 13.1 nM, the koff amounted to 0.000167 s⁻¹ and the kon came out at 12800 M⁻¹ s⁻¹. Also, the EC50 in experiment [2] was found to be 0.141 mg/L.

B6: 1E7-huVH1-HC (IgG1) huVL1 (antibody)
heavy: not shown
light: DIVMTQSPSSLSVSVGDRVTMTCKSSQSLLNSGNQKNYLTWYQQKPGQPPKLLIYWASTRESGVPDRFSGSGSGTDFTLTISSVQPEDFATYYCQNDYSYPFTFGGGTKLEIKRTVAAPSVFIFPPSDEQLKSGTASVVCLLNNFYPREAKVQWKVDNALQSGNSQESVTEQDSKDSTYSLSSTLTLSKADYEKHKVYACEVTHQGLSSPVTKSFNRGEC
notes: as for B1
In experiment [1], B6 showed a Kd of 4.9 nM, a koff of 5.97e-05 s⁻¹ and a kon of 12200 M⁻¹ s⁻¹. The molecule also gave an EC50 in experiment [2] of 0.0479 mg/L.

B7: 1E7-huVH4-HC (IgG1) huVL2 (antibody)
heavy: not shown
light: DIQMTQSPSSLSASVGDRVTMTCKSSQSLLNSGNQKNYLTWYQQKPGKAPKLLIYWASTRESGVPSRFSGSGSGTDFTLTISSLQPEDFATYYCQNDYSYPFTFGGGTKLEIKRTVAAPSVFIFPPSDEQLKSGTASVVCLLNNFYPREAKVQWKVDNALQSGNSQESVTEQDSKDSTYSLSSTLTLSKADYEKHKVYACEVTHQGLSSPVTKSFNRGEC
notes: as for B1
In experiment [1], B7 gave a Kd of 10.7 nM, a dissociation rate constant (koff) of 0.000126 s⁻¹ and a kon of 11800 M⁻¹ s⁻¹. Further, the EC50 in experiment [2] came out at 0.0397 mg/L.

B8: 1E7-huVH3-HC (IgG1) huVL1 (antibody)
heavy: not shown
light: DIVMTQSPSSLSVSVGDRVTMTCKSSQSLLNSGNQKNYLTWYQQKPGQPPKLLIYWASTRESGVPDRFSGSGSGTDFTLTISSVQPEDFATYYCQNDYSYPFTFGGGTKLEIKRTVAAPSVFIFPPSDEQLKSGTASVVCLLNNFYPREAKVQWKVDNALQSGNSQESVTEQDSKDSTYSLSSTLTLSKADYEKHKVYACEVTHQGLSSPVTKSFNRGEC
notes: as for B1
In experiment [1], B8 had a Kd of 0.35 nM, a koff of 3.6e-06 s⁻¹ and a kon of 10300 M⁻¹ s⁻¹. It took 0.0663 mg/L to reach a half-maximal effect in experiment [2] (EC50).

B9: 1E7-huVH4-HC (IgG1) huVL3 (antibody)
heavy: not shown
light: DIQMTQSPSSLSASVGDRVTITCRSSQSLLNSGNQKNYLTWYQQKPGKAPKLLIYWASTRESGVPSRFSGSGSGTDFTLTISSLQPEDFATYYCQNDYSYPFTFGGGTKLEIKRTVAAPSVFIFPPSDEQLKSGTASVVCLLNNFYPREAKVQWKVDNALQSGNSQESVTEQDSKDSTYSLSSTLTLSKADYEKHKVYACEVTHQGLSSPVTKSFNRGEC
notes: as for B1
In experiment [1], B9 registered a dissociation constant Kd of 2.64 nM, a dissociation rate constant (koff) of 2.99e-05 s⁻¹ and a kon of 11300 M⁻¹ s⁻¹. In experiment [2], this molecule gave an EC50 of 0.05 mg/L.

B10: 1E7-huVH2-HC (IgG1) huVL2 (antibody)
heavy: not shown
light: DIQMTQSPSSLSASVGDRVTMTCKSSQSLLNSGNQKNYLTWYQQKPGKAPKLLIYWASTRESGVPSRFSGSGSGTDFTLTISSLQPEDFATYYCQNDYSYPFTFGGGTKLEIKRTVAAPSVFIFPPSDEQLKSGTASVVCLLNNFYPREAKVQWKVDNALQSGNSQESVTEQDSKDSTYSLSSTLTLSKADYEKHKVYACEVTHQGLSSPVTKSFNRGEC
notes: as for B1
In experiment [1], B10 yielded a Kd of 2.89 nM, a koff of 3.18e-05 s⁻¹ and a kon of 11000 M⁻¹ s⁻¹. Further, the EC50 in experiment [2] amounted to 0.0555 mg/L.

B11: 1E7-huVH3-HC (IgG1) huVL3 (antibody)
heavy: not shown
light: DIQMTQSPSSLSASVGDRVTITCRSSQSLLNSGNQKNYLTWYQQKPGKAPKLLIYWASTRESGVPSRFSGSGSGTDFTLTISSLQPEDFATYYCQNDYSYPFTFGGGTKLEIKRTVAAPSVFIFPPSDEQLKSGTASVVCLLNNFYPREAKVQWKVDNALQSGNSQESVTEQDSKDSTYSLSSTLTLSKADYEKHKVYACEVTHQGLSSPVTKSFNRGEC
notes: as for B1
In experiment [1], B11 displayed a Kd of 11.6 nM, a koff of 0.000132 s⁻¹ and a kon of 11300 M⁻¹ s⁻¹. In addition, in experiment [2], the EC50 worked out at 0.0707 mg/L.

B12: 1E7-huVH1-HC (IgG1) huVL2 (antibody)
heavy: not shown
light: DIQMTQSPSSLSASVGDRVTMTCKSSQSLLNSGNQKNYLTWYQQKPGKAPKLLIYWASTRESGVPSRFSGSGSGTDFTLTISSLQPEDFATYYCQNDYSYPFTFGGGTKLEIKRTVAAPSVFIFPPSDEQLKSGTASVVCLLNNFYPREAKVQWKVDNALQSGNSQESVTEQDSKDSTYSLSSTLTLSKADYEKHKVYACEVTHQGLSSPVTKSFNRGEC
notes: as for B1
In experiment [1], B12 had a Kd of 4.85 nM, a koff of 5.87e-05 s⁻¹ and a kon of 12100 M⁻¹ s⁻¹. Besides, the EC50 in experiment [2] stood at 0.0305 mg/L.

B13: 1E7-mVHmVL (antibody, human IgG4 S228P, kappa)
heavy: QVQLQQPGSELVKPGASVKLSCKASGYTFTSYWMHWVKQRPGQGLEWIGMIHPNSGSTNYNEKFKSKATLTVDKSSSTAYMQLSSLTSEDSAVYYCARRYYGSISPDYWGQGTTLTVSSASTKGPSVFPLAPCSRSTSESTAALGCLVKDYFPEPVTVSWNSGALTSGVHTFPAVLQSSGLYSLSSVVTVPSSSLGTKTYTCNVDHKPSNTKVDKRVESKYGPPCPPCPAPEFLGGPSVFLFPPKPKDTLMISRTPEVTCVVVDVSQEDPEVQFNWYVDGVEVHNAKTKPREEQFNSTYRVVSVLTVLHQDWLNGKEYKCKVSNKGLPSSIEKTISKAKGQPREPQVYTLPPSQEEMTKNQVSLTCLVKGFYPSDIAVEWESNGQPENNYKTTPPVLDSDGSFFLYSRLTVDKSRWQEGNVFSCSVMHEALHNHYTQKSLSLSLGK
light: DIVMTQSPSSLSVTAGEKVTMSCKSSQSLLNSGNQKNYLTWYQQKPGQPPKLLIYWASTRESGVPDRFTGSGSGTDFTLTISSVQAEDLAVYYCQNDYSYPFTFGSGTKLEIKRTVAAPSVFIFPPSDEQLKSGTASVVCLLNNFYPREAKVQWKVDNALQSGNSQESVTEQDSKDSTYSLSSTLTLSKADYEKHKVYACEVTHQGLSSPVTKSFNRGEC
notes: also called chimeric antibody 1E7; chimeric antibody murine 1E7 monoclonal antibody
Consider B13, for which, in experiment [1], binding was characterised by a dissociation constant (Kd) of 2.66 nM, the koff amounted to 2.71e-05 s⁻¹ and the kon was 10200 M⁻¹ s⁻¹.

B14: 1E7-mVH-HC (IgG1) mVL (antibody)
heavy: not shown
light: DIVMTQSPSSLSVTAGEKVTMSCKSSQSLLNSGNQKNYLTWYQQKPGQPPKLLIYWASTRESGVPDRFTGSGSGTDFTLTISSVQAEDLAVYYCQNDYSYPFTFGSGTKLEIKRTVAAPSVFIFPPSDEQLKSGTASVVCLLNNFYPREAKVQWKVDNALQSGNSQESVTEQDSKDSTYSLSSTLTLSKADYEKHKVYACEVTHQGLSSPVTKSFNRGEC
notes: also called chimeric antibody 1E7-mVH-HC (IgG1) mVL
Turning to B14, in experiment [1], the Kd came out at 3.82 nM, the koff is 4.48e-05 s⁻¹ and the kon turned out to be 11700 M⁻¹ s⁻¹.

B15: 1B6-mVH-HC (IgG1) mVL (antibody)
heavy: not shown
light: DIVMTQSPSSLTVTAGEKVTMSCKSSQSLFNSGNQKNYLTWYQQKPGQPPKLLIYWASTRESGVPDRFTGSGSGTDFTLTISSVQAEDLAVYFCQNDYSYPLTFGAGTKLELKRTVAAPSVFIFPPSDEQLKSGTASVVCLLNNFYPREAKVQWKVDNALQSGNSQESVTEQDSKDSTYSLSSTLTLSKADYEKHKVYACEVTHQGLSSPVTKSFNRGEC
notes: also called chimeric antibody 1B6-mVH-HC (IgG1) mVL
In the case of B15, in experiment [1], the affinity, expressed as Kd, was 44.4 nM; the koff came to 0.000792 s⁻¹; the kon was 17800 M⁻¹ s⁻¹.

B16: 1B6-mVHmVL (antibody, human IgG4 S228P, kappa)
heavy: not shown
light: DIVMTQSPSSLTVTAGEKVTMSCKSSQSLFNSGNQKNYLTWYQQKPGQPPKLLIYWASTRESGVPDRFTGSGSGTDFTLTISSVQAEDLAVYFCQNDYSYPLTFGAGTKLELKRTVAAPSVFIFPPSDEQLKSGTASVVCLLNNFYPREAKVQWKVDNALQSGNSQESVTEQDSKDSTYSLSSTLTLSKADYEKHKVYACEVTHQGLSSPVTKSFNRGEC
notes: also called chimeric antibody 1B6; chimeric antibody murine 1B6 monoclonal antibody
In experiment [1], B16 yielded a Kd of 84.2 nM, a koff of 0.00188 s⁻¹ and a kon of 22300 M⁻¹ s⁻¹.
